Reference: patent US20210253718A1, “FRIZZLED5 PROTEIN-BINDING AGENTS” (Modmab Therapeutics Corporation, priority 2016, published 2021)

T1: FZD5 CRD (Homo sapiens, UniProt Q13467)
T1 construct: K29-T156; GPI anchor signal (C); expressed in transfected cells; host or cells: CHO cells, lentiviral pLenti-puro
T1 sequence (Q13467 29-156): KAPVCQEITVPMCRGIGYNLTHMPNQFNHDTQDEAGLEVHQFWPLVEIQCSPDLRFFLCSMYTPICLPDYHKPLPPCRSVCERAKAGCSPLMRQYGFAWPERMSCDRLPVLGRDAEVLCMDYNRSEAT

T2: FZD9 CRD (Homo sapiens, UniProt O00144)
T2 construct: G35-A161; GPI anchor signal (C); expressed in transfected cells; host or cells: CHO cells, lentiviral pLenti-puro
T2 sequence (O00144 35-161): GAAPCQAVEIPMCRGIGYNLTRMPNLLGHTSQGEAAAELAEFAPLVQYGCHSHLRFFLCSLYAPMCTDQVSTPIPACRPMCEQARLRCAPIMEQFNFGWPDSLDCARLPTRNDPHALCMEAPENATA

T3: FZD6 CRD (Homo sapiens, UniProt O60353)
T3 construct: S20-P146; GPI anchor signal (C); expressed in transfected cells; host or cells: CHO cells, lentiviral pLenti-puro
T3 sequence (O60353 20-146): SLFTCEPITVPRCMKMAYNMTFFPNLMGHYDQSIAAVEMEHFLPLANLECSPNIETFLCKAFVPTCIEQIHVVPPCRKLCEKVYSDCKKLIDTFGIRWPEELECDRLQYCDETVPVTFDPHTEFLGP

T4: FZD4 CRD (Homo sapiens, UniProt Q9ULV1)
T4 construct: E42-V167; GPI anchor signal (C); expressed in transfected cells; host or cells: CHO cells, lentiviral pLenti-puro
T4 sequence (Q9ULV1 42-167): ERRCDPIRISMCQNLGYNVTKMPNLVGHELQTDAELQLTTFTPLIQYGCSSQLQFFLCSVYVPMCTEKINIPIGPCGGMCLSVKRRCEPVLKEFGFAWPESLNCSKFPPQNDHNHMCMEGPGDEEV

T5: FZD10 CRD (Homo sapiens, UniProt Q9ULW2)
T5 construct: 30-156; GPI anchor signal (C); expressed in transfected cells; host or cells: CHO cells, lentiviral pLenti-puro
T5 sequence (Q9ULW2 30-156): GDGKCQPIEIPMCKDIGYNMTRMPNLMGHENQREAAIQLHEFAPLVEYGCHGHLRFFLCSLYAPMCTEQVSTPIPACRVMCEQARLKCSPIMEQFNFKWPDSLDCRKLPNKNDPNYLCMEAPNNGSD

B1: Fab-2898: anti-FZD5 Fab with antibody variable region Fv-2898; CDR SEQ ID NOs: 35, 36, 37, 76, 113, 152 (antibody, V domains shown)
VH: EVQLVESGGGLVQPGGSLRLSCAASGFNIYSYSMHWVRQAPGKGLEWVASIYSSSGSTSYADSVKGRFTISADTSKNTAYLQMNSLRAEDTAVYYCARAVWGLDYWGQGTLVTVSS
VL: DIQMTQSPSSLSASVGDRVTITCRASQSVSSAVAWYQQKPGKAPKLLIYSASSLYSGVPSRFSGSRSGTDFTLTISSLQPEDFATYYCQQWWGYYSLITFGQGTKVEIK
B2: Fab-2899: anti-FZD5 Fab with antibody variable region Fv-2899; CDR SEQ ID NOs: 35, 36, 38, 77, 114, 153 (antibody, V domains shown)
VH: EVQLVESGGGLVQPGGSLRLSCAASGFNLYYYYMHWVRQAPGKGLEWVASIYPSSGSTSYADSVKGRFTISADTSKNTAYLQMNSLRAEDTAVYYCARGALDYWGQGTLVTVSS
VL: DIQMTQSPSSLSASVGDRVTITCRASQSVSSAVAWYQQKPGKAPKLLIYSASSLYSGVPSRFSGSRSGTDFTLTISSLQPEDFATYYCQQWYSSYGLITFGQGTKVEIK
B3: Fab-2923: anti-FZD5 Fab with antibody variable region Fv-2923; CDR SEQ ID NOs: 35, 36, 62, 100, 138, 162 (antibody, V domains shown)
VH: EVQLVESGGGLVQPGGSLRLSCAASGFNLYYYYMHWVRQAPGKGLEWVASIYSSSGSTSYADSVKGRFTISADTSKNTAYLQMNSLRAEDTAVYYCARGAMDYWGQGTLVTVSS
VL: DIQMTQSPSSLSASVGDRVTITCRASQSVSSAVAWYQQKPGKAPKLLIYSASSLYSGVPSRFSGSRSGTDFTLTISSLQPEDFATYYCQQWYGYSALITFGQGTKVEIK
B4: Fab-2925: anti-FZD5 Fab with antibody variable region Fv-2925; CDR SEQ ID NOs: 35, 36, 64, 102, 140, 172 (antibody, V domains shown)
VH: EVQLVESGGGLVQPGGSLRLSCAASGFNLSYSSMHWVRQAPGKGLEWVASIYPSYGSTYYADSVKGRFTISADTSKNTAYLQMNSLRAEDTAVYYCARYGYFGLDYWGQGTLVTVSS
VL: DIQMTQSPSSLSASVGDRVTITCRASQSVSSAVAWYQQKPGKAPKLLIYSASSLYSGVPSRFSGSRSGTDFTLTISSLQPEDFATYYCQQAWVYASLFTFGQGTKVEIK
B5: Fab-2926: anti-FZD5 Fab with antibody variable region Fv-2926; CDR SEQ ID NOs: 35, 36, 65, 103, 141, 173 (antibody, V domains shown)
VH: EVQLVESGGGLVQPGGSLRLSCAASGFNIYSSYMHWVRQAPGKGLEWVASIYPSSSSTSYADSVKGRFTISADTSKNTAYLQMNSLRAEDTAVYYCARGGLDYWGQGTLVTVSS
VL: DIQMTQSPSSLSASVGDRVTITCRASQSVSSAVAWYQQKPGKAPKLLIYSASSLYSGVPSRFSGSRSGTDFTLTISSLQPEDFATYYCQQWYHGGSLFTFGQGTKVEIK

Assays:
RWP1 cells = assay: Effect of anti-FZD5 Fabs on proliferation of pancreatic cancer cell lines (percent growth inhibition); type: cell-based, human; conditions: Fab 2 μg/ml
PATU8988S cells = assay: as above; type: cell-based, human; conditions: Fab 2 μg/ml
FZD2 CRD = target: T6, FZD2 CRD (Homo sapiens, UniProt Q14332); assay: Immunofluorescence of anti-FZD5 Fab binding to CHO cells overexpressing Frizzled CRD; design: key: −: no binding; +: very weak binder; ++: weak binder; +++: good binder; ++++: very good binder
T6 construct: D35-P161; GPI anchor signal (C); expressed in transfected cells; host or cells: CHO cells, lentiviral pLenti-puro
Description: (§1) Plasmids: pLCKO lentiviral vector used for knockout (TKO) library construction and expression of individual gRNAs was constructed as described previously (Hart et al., 2015). Briefly, single guide RNA (sgRNA) scaffold was amplified from px330 (Addgene 42230) and cloned into pLKO.TRC005 lentiviral vector (Broad Institute, Cambridge, Mass.) using AgeI/EcoRI restriction sites. BfuAI sites were added at the 5′ end of the sgRNA scaffold for cloning the TKO library or individual gRNA target sequences. Lenti Cas9-2A-BsdR vector used to generate Cas9 stable expression cell lines was constructed as described previously (Hart et al., 2015). Briefly, lentiCRISPR pXPR_001 (Addgene 49535) was modified through removal of the sgRNA scaffold region through NdeI/EcoRI digest and blunt ends generation using Large Klenow Fragment (NEB). 2A-puro was replaced with 2A-BsdR by PCR using the NheI/MluI sites. Each of the 10 human Frizzled cysteine rich domains (CRDs) were cloned into the lentiviral expression plasmid pLenti-puro in the following cassette: FZD_CRD-MYC-GPI.
(§2) To confirm that the FZD5-WNT7B circuit is not driven simply by expression and rule out the possibility of a disconnect between RNA and protein levels for the Wnt receptors in HPAF-II cells, a panel of recombinant Fabs were generated, alternatively referred to herein as ‘Frizzled profiler’, that can detect and discriminate all but one of the ten Frizzled receptors. […] To characterize the binding specificity of these Fabs on cells, a panel of 10 CHO cell lines was generated, each expressing the CRD domain of a different myc-tagged Frizzled family member anchored at the plasma membrane through a GPI anchor (CHO-myc-FZDGPI). Despite the high sequence identity between Frizzled family members (FIG. 7A, FIG. 7B), selective Fabs were identified for FZD4, FZD5, FZD6 and FZD10 as assessed by immunofluorescence and flow cytometry (FIG. 7D and FIG. 8). […] The FZD8 CRD is most homologous to that of FZD5 (FIG. 7B). These Fabs can be used to discriminate expression of FZD1, FZD2, FZD4, FZD5, FZD6, FZD7, FZD8, FZD9 and FZD10 (FIG. 7D and FIG. 8). The ‘Frizzled profiler’ therefore consists of 10 different Fabs that can be used to discriminate expression of 9 different Frizzled family members. The Frizzled profiler was then used to confirm that HPAF-II cells express FZD1, FZD5, FZD6 and possibly FZD8 (FIG. 7E).
(§3) The binding of anti-FZD5 Fabs to cell surface-expressed Frizzled protein was further determined for each member of the Frizzled family via flow cytometry and immunofluorescence analysis of a panel of 10 CHO cell lines, each ectopically over-expressing the extracellular cysteine-rich domain (CRD) of a different Frizzled protein family member.

FZD5 CRD = target: T1, FZD5 CRD; assay: as above; design: key: −: no binding; +: very weak binder; ++: weak binder; +++: good binder; ++++: very good binder
Description: as §1, §2, §3

FZD9 CRD = target: T2, FZD9 CRD; assay: as above; design: key: −: no binding; +: very weak binder; ++: weak binder; +++: good binder; ++++: very good binder
Description: as §1, §2, §3

FZD6 CRD = target: T3, FZD6 CRD; assay: as above; design: key: −: no binding; +: very weak binder; ++: weak binder; +++: good binder; ++++: very good binder
Description: as §1, §2, §3

FZD4 CRD = target: T4, FZD4 CRD; assay: as above; design: key: −: no binding; +: very weak binder; ++: weak binder; +++: good binder; ++++: very good binder
Description: as §1, §2, §3

FZD10 CRD = target: T5, FZD10 CRD; assay: as above; design: key: −: no binding; +: very weak binder; ++: weak binder; +++: good binder; ++++: very good binder
Description: as §1, §2, §3

ASPC-1 cells = assay: Effect of anti-FZD5 Fabs on proliferation of pancreatic cancer cell lines (percent growth inhibition); type: cell-based, human; conditions: Fab 2 μg/ml
[1] = test system: CHO cells not expressing Frizzled CRD; assay: Flow cytometry of anti-FZD5 Fab binding to CHO cells not expressing Frizzled CRD (background)
Description: as §3

Molecule | percent growth inhibition, RWP1 2 μg/ml (RWP1 cells) | percent growth inhibition, PATU8988s 2 μg/ml (PATU8988S cells) | Immunofluorescence binding, Frizzled CRD overexpressed on CHO cells: FZD2 (FZD2 CRD) | Immunofluorescence binding, Frizzled CRD overexpressed on CHO cells: FZD5 (FZD5 CRD) | Immunofluorescence binding, Frizzled CRD overexpressed on CHO cells: FZD9 (FZD9 CRD) | Immunofluorescence binding, Frizzled CRD overexpressed on CHO cells: FZD6 (FZD6 CRD) | Immunofluorescence binding, Frizzled CRD overexpressed on CHO cells: FZD4 (FZD4 CRD) | Immunofluorescence binding, Frizzled CRD overexpressed on CHO cells: FZD10 (FZD10 CRD) | percent growth inhibition, ASPC-1 2 μg/ml (ASPC-1 cells) | Median fluorescence, Frizzled CRD overexpressed on CHO cells: None [1]
B1 | 21.46% | 4.53% | +++ | +++ | − | − | − | − | 11.14% | 5.38
B2 | 37.95% | 4.94% | +++ | +++ | − | − | − | − | 37.97% | 4.91
B3 | 35.90% | −18.54% | − | ++++ | − | − | − | − | 35.27% | 
B4 | 30.69% | −8.12% |  | ++++ | − | − | − | − | −0.26% | 3.55
B5 | 37.95% | −15.89% | − | ++++ | − | − | − | − | 17.27% | 
